{"source": "patent US20260152555A1", "about": "(HUAHUI HEALTH, published 2026)", "binders": {"B1": {"name": "H733 (humanized Ab composed of 733-VH-humanV2 and 733-VL-human-C91S) (antibody, human IgG4, V domains shown)", "VH": "QVQLVQSGAEVKKPGASVKVSCKASGYTFTNYLIEWVRQAPGQGLEWMGVINPGHGFTNYAQKFQGRVTMTRDTSTSTVYMELSSLRSEDTAVYYCARGEWDWYFDVWGQGTTVTVSS", "VL": "DIQLTQSPSFLSASVGDRVTITCKASQNVGTAVAWYQQKPGKAPKLLIYSTSNRYTGVPSRFSGSGSGTEFTLTISSLQPEDFATYYCQQSSSYPFTFGGGTKVEIK", "notes": "also called H733-hIgG4; H733 mAb (hIgG4 form)"}}, "key": {"[1]": {"target": "T1, hCD112R-ECD-His6-Avi (human, UniProt Q6DKI7 42-172, biotinylated (Avi tag) in the ELISA assays)", "T1 construct": "range 42-172; Expressed in HEK 293F cells; Analyte in SPR, and captured on streptavidin in ELISA; also called biotinylated hCD112R-ECD-His6-Avi; not shown: C-terminal His6-Avi tag", "T1 sequence (looked up)": "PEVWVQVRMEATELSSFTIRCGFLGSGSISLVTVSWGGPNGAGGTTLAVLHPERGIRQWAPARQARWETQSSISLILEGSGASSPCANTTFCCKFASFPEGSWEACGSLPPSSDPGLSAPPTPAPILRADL", "assay": "ELISA-based competition, biotinylated hCD112R-ECD-His6-Avi on streptavidin, competitor hCD112-ECD-mFc at 0.1 ug/ml", "experimental": "Biotinylated hCD112R-ECD-His₆-Avi protein antigen was captured with streptavidin (Sigma) coated 96-well plates (Nunc, MaxiSorp™). H733 serially diluted in 2% milk/PBS containing 0.1 μg/ml of the hCD112-ECD-mFc protein were added to the ELISA plates to test for competitive binding between hCD112R and hCD112. The signal was measured via ligand detection using HRP-anti-mouse IgG secondary Ab (Thermo Fisher Scientific)."}, "[2]": {"target": "T2, K135A (human, UniProt Q6DKI7)", "T2 construct": "extracellular domain, amino acids 42-172; alanine-scanning variant; also called hCD112R-ECD-mFc K135A variant", "T2 sequence (Fc fusion chain, looked up)": "T1 sequence (looked up) with K94A", "assay": "SPR (Biacore T200), multi-cycle; H733-hIgG4 captured on anti-hFc Ab, hCD112R-ECD-mFc variant injected (3.125-100 nM); 1:1 Langmuir [Cont') B]", "experimental": "(§1) Kinetic analyses of the bindings of WT or mutated hCD112R-ECD-mFc proteins to H733 and hCD112-ECD were performed on a Biacore T200 instrument (Biacore, GE Healthcare). For the single-cycle SPR analysis, anti-mFc Ab (Thermo Fisher) was covalently attached to surfaces of a CM5 sensor chip using an amine coupling kit (GE Healthcare). WT or mutated hCD112R-ECD mFc fusion proteins were captured on the chip and H733-hIgG4 or hCD112-ECD-hFc were then injected. For the multi-cycle SPR analysis, anti-hFc Ab (Thermo Fisher) was covalently attached to surfaces of a CM5 sensor chip using an amine coupling kit (GE Healthcare). H733-hIgG4 or hCD112-ECD-hFc protein was captured on the chip and 2-fold serially diluted WT or mutated hCD112R-ECD-mFc proteins (3.125-100 nM) were then injected. Binding kinetics were evaluated using a 1:1 Langmuir binding model. The association rates (ka), dissociation rates (kd), and affinity constants (KD) were calculated using Biacore T200 evaluation software."}, "[3]": {"target": "T3, hCD112R-ECD-mFc E145A variant (human; mouse, UniProt Q6DKI7 42-172)", "T3 construct": "range 42-172; also called E145A mutation of hCD112R; not shown: Fc domain of mouse IgG2a", "T3 sequence (looked up)": "T1 sequence (looked up) with E104A", "assay": "SPR (Biacore T200), multi-cycle; H733-hIgG4 captured on anti-hFc Ab, hCD112R-ECD-mFc variant injected (3.125-100 nM); 1:1 Langmuir [Cont') B]", "experimental": "as §1"}, "[4]": {"target": "T4, F139A (human, UniProt Q6DKI7)", "T4 construct": "extracellular domain, amino acids 42-172; alanine-scanning variant; also called hCD112R-ECD-mFc F139A variant", "T4 sequence (Fc fusion chain, looked up)": "T1 sequence (looked up) with F98A", "assay": "SPR (Biacore T200), multi-cycle; H733-hIgG4 captured on anti-hFc Ab, hCD112R-ECD-mFc variant injected (3.125-100 nM); 1:1 Langmuir [Cont') B]", "experimental": "as §1"}, "[5]": {"target": "T5, L72A (human, UniProt Q6DKI7)", "T5 construct": "extracellular domain, amino acids 42-172; alanine-scanning variant; also called hCD112R-ECD-mFc L72A variant", "T5 sequence (Fc fusion chain, looked up)": "T1 sequence (looked up) with L31A", "assay": "SPR (Biacore T200), multi-cycle; H733-hIgG4 captured on anti-hFc Ab, hCD112R-ECD-mFc variant injected (3.125-100 nM); 1:1 Langmuir [Cont') B]", "experimental": "as §1"}, "[6]": {"target": "T1, hCD112R-ECD-His6-Avi", "assay": "SPR (Biacore T200), multi-cycle, H733 captured by anti-hFc Ab, hCD112R-ECD-His6-Avi as analyte, 1:1 Langmuir model", "experimental": "Anti-hFc Ab (Thermo Fisher) was covalently attached to surfaces of a CM5 sensor chip using an amine coupling kit (GE Healthcare). Abs at optimal concentrations were captured on the chip and the analytes (hCD112R-ECD-His₆-Avi) at single concentration or serial dilutions were then injected. Binding kinetics were evaluated using a 1:1 Langmuir binding model. The association rates (ka), dissociation rates (kd), and affinity constants (KD) were calculated using Biacore T200 evaluation software."}}, "note": "Numbering of substitutions follows the chain as printed. Numbers in names are those of the source.", "data": [{"binder": "B1", "values": [{"measurement": "IC50", "setting": "[1]", "value": 0.87, "unit": "µg/mL"}, {"measurement": "Kd", "setting": "[2]", "value": 0.847, "unit": "nM"}, {"measurement": "koff", "setting": "[2]", "value": 0.000412, "unit": "s⁻¹"}, {"measurement": "kon", "setting": "[2]", "value": 487000, "unit": "M⁻¹ s⁻¹"}, {"measurement": "Kd", "setting": "[3]", "value": 1.42, "unit": "nM"}, {"measurement": "koff", "setting": "[3]", "value": 0.000418, "unit": "s⁻¹"}, {"measurement": "kon", "setting": "[3]", "value": 296000, "unit": "M⁻¹ s⁻¹"}, {"measurement": "Kd", "setting": "[4]", "value": 0.165, "unit": "nM"}, {"measurement": "koff", "setting": "[4]", "value": 0.000232, "unit": "s⁻¹"}, {"measurement": "kon", "setting": "[4]", "value": "1.4e+06", "unit": "M⁻¹ s⁻¹"}, {"measurement": "Kd", "setting": "[5]", "value": 0.469, "unit": "nM"}, {"measurement": "koff", "setting": "[5]", "value": 0.000394, "unit": "s⁻¹"}, {"measurement": "kon", "setting": "[5]", "value": 840000, "unit": "M⁻¹ s⁻¹"}, {"measurement": "Kd", "setting": "[6]", "value": 0.65, "unit": "nM"}]}]}
